Values of other authors in US20230212279A1, “TREATMENT AND PREVENTION OF DISEASE CAUSED BY TYPE IV COLLAGEN DYSFUNCTION” (Singapore Health Services PTE, LTD., priority 2020, published 2023).

Target: T1, IL-11Rα (Homo sapiens, UniProt Q14626)
T1 sequence (Q14626 23-422): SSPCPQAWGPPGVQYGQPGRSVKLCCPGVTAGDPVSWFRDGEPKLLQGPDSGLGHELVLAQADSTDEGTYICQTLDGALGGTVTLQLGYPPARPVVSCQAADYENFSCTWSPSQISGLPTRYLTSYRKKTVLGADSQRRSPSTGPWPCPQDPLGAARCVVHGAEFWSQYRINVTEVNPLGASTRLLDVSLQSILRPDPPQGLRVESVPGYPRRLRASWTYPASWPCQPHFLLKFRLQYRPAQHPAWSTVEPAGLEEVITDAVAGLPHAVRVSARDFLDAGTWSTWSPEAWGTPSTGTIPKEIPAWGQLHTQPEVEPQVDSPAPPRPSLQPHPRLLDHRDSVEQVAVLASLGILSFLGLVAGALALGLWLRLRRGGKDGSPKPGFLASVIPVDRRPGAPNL
Conditions: IL-11 binding to IL-11Rα alone, low affinity; cited from earlier work

B1: IL-11: pleiotropic cytokine, member of the IL-6 family of cytokines (protein)
chain: PGPPAGSPRVSSDPRADLDSAVLLTRSLLADTRQLAAQMRDKFPADGDHSLDSLPTLAMSAGTLGSLQLPGVLTRLRVDLMSYLRHVQWLRRAGGPSLKTLEPELGALQARLERLLRRLQLLMSRLALPQAAPDQPVIPLGPPASAWGSIRAAHAILGGLHLTLDWAVRGLLLLKTRL
For B1, the Kd is given as about 22 nM.
